Target: Human ACLY, His-tagged, bacterially expressed and purified recombinant full length protein (UniProt P53396)
Chain of UniProt P53396 (P53396 whole entry): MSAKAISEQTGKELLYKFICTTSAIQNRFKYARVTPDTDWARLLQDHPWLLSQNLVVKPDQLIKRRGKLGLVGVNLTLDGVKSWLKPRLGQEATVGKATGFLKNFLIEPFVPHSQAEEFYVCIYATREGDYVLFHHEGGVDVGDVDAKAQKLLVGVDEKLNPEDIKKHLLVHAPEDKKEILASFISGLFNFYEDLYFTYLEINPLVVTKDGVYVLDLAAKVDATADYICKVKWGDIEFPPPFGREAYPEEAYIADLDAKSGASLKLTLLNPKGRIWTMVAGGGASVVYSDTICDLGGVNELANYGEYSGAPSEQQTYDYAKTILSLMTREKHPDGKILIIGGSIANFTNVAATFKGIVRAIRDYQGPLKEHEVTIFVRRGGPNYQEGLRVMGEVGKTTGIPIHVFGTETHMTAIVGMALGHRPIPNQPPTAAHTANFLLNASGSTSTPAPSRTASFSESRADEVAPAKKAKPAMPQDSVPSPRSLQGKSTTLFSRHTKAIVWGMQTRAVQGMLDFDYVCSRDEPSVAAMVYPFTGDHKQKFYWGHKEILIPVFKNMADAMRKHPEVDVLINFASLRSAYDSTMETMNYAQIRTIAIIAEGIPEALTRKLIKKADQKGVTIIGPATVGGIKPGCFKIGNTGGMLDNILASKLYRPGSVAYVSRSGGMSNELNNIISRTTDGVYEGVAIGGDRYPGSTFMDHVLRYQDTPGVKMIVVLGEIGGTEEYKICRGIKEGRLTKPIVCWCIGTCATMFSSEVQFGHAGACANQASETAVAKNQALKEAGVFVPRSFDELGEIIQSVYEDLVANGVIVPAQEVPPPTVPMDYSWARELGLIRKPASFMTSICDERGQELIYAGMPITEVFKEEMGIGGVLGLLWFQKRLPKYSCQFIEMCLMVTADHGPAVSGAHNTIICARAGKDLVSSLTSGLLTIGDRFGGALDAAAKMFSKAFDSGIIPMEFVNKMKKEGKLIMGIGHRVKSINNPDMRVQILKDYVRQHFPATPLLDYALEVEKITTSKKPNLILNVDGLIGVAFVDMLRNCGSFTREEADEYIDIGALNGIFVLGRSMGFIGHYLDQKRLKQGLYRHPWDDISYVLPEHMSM

Active recombinant Src kinase
ACLY tyrosine residues phosphorylated (phosphoproteomics): The three ACLY tyrosine residues, Y682, Y252, Y227, were common for Lyn and Src

Reference: US20220218659
